In patent US5534418:

Test system: T3 receptor (thyroid hormone receptor, GC2 pituitary cell nuclear extract) (Rattus norvegicus)
Experiment: pulldown
Conditions: equilibrium binding constant printed as 1.4x10^-9 M, ABCD assay, poly(dI-dC), 22 C, data not shown

With G209-146 rat GH enhancer probe the Kd was 1.4 nM.
